Where “and” joins values, the source holds several entries; their conditions need not be identical. Equal values may be shown once.

The conditions of this series: Aspergillus oryzae (strain ATCC 42149 / RIB 40), 25 °C, Fluorescence, reversible: yes, whole UniProt chain shown.

B1: Guanyl-specific ribonuclease T1 wild type, P00651 (protein)
chain: MMYSKLLTLTTLLLPTALALPSLVERACDYTCGSNCYSSSDVSTAQAAGYQLHEDGETVGSNSYPHKYNNYEGFDFSVSSPYYEWPILSSGDVYSGGSPGADRVVFNENNQLAGVITHTGASGNNFVECT
On to B1, for which the denaturant m value runs as follows: (pH 2.92, GdnHCl, formate 30 mM) 2.89 kcal/mol/M; (pH 3.02, GdnHCl, formate 30 mM) 2.89 kcal/mol/M; (pH 6.98, GdnHCl, MOPS 30 mM) 3.09 kcal/mol/M and 2.58 kcal/mol/M; (pH 9.89, GdnHCl, glycine 30 mM) 3.27 kcal/mol/M; (pH 9.91, GdnHCl, glycine 30 mM) 2.58 kcal/mol/M. The “denaturant midpoint (higher = more stable)” value reads like this: (pH 2.92, GdnHCl, formate 30 mM) 2.78 M; (pH 3.02, GdnHCl, formate 30 mM) 1.8 M; (pH 6.98, GdnHCl, MOPS 30 mM) 2.99 M and 2.98 M; (pH 9.89, GdnHCl, glycine 30 mM) 2.57 M; (pH 9.91, GdnHCl, glycine 30 mM) 1.36 M. In addition, the unfolding free energy was 8.04 kcal/mol (pH 2.92, GdnHCl, formate 30 mM); 6.2 kcal/mol (pH 2.92, Urea, formate 30 mM); 5.2 kcal/mol (pH 3.02, GdnHCl, formate 30 mM); 5.2 kcal/mol (pH 3.02, Urea, formate 30 mM); 9.24 kcal/mol and 7.7 kcal/mol (pH 6.98, GdnHCl, MOPS 30 mM); 8.4 kcal/mol (pH 9.89, GdnHCl, glycine 30 mM). Moreover, the unfolding free energy (pH 9.89, Urea, glycine 30 mM) was found to be 8.6 kcal/mol and the unfolding free energy (pH 9.91, GdnHCl, glycine 30 mM) was 3.52 kcal/mol.

For the origin of these results see FireProtDB (doi:10.1021/bi00462a019).
